This data set can be described thus: amyloid nucleation score (Sup35N fusion, yeast selection) (log enrichment); library NNK2; higher = more nucleation; inactive = no reads after selection. In a few lines:
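Three technical output replicates were used for random libraries. Psi-negative yeast expressing peptides of 20 random codons fused to Sup35N were induced with 100 μM copper sulfate for 24 hours and grown 7 days at 30°C on medium lacking adenine and uracil, and input and output plasmid inserts were Illumina-sequenced, excluding sequences with under 100 input reads. The nucleation score is the DiMSum log enrichment of output over input reads, centred on the mode score of non-aggregating sequences.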

± gives the uncertainty stated by the source.

For AVWVRLTFDYWGRCTILGTV, the amyloid nucleation score entry was “inactive”. Regarding WYGCMVIAQWGFYYENNTSW, the amyloid nucleation score result is “inactive”. Regarding GMNLNLPTQTHTSVRHNRG, the amyloid nucleation score is 2.75 ± 0.14. In the case of DHVYICSSFAPKSTAMLC, the amyloid nucleation score was 1.55 ± 0.38. CNSHM returned an amyloid nucleation score of 2.9 ± 0.072. The same measure for VIYKSLHRLVISRVNVFFPV: -0.263 ± 0.65; for DALVFSPCRALWTLLSVCEG: 0.896 ± 0.3; for KCPSESMRKFF: 0.672 ± 0.53.

As to LILLNFTADSRGRRMLCCAW, the amyloid nucleation score is -0.584 ± 0.76. The same measure for MKVVNCGCKHIFLRHCYALR: -0.605 ± 0.45. The same measure for LLAKSLDTGILD: 6.487 ± 0.025; for QLGRYLCHTIFKHRLYICTW: 0.113 ± 1.1.

Substance EMLKHCYTSTQSSYSFIYWR gave an amyloid nucleation score of -0.27 ± 0.65. For the substance HGRKNFSVGVVVVLWLRLFV, the amyloid nucleation score amounted to 5.63 ± 0.081. The same measure for YLSLNGVHYCIGSITIPSQR: 8.06 ± 0.083; for GGSRTRSCQDRAHCSVGGM: 0.598 ± 0.39. Substance SIEYRDLKVCSLLYPVPQSG yielded an amyloid nucleation score of 0.127 ± 0.46. The same measure for GDSIDARGRVQAPQSKEGLR: 1.12 ± 0.42; for SMCWNL: 0.17 ± 0.39; for LKTIMCFCQIYLFNSDPVHF: 3.37 ± 0.11.

As for GMLKTLSMMHTLIWYFLWDT, the amyloid nucleation score was -0.62 ± 0.79.

Take AQNKNWQSFRMFPVVLAMVG: the amyloid nucleation score stood at 0.178 ± 0.77. The same measure for DLKRTFR: -0.487 ± 0.79. The same measure for EFRWYNFLWY: -0.618 ± 1.1; for TSVVFWWGKGGKVGEPNEAG: 0.147 ± 1.1. KLACVEGTKWAASGIAPNV had an amyloid nucleation score of 0.946 ± 0.2. The same measure for FFMCMQVWLRVFYVRGM: -1.5 ± 0.36. The substance LHLRNVMVQ gave an amyloid nucleation score of -0.681 ± 0.31.

As for TKGFVTGVGGRSLIIVGCGA, the amyloid nucleation score amounted to 0.664 ± 0.51. The same measure for SVLERPCMS: 0.176 ± 0.76; for VWWGSMHAVC: 0.652 ± 0.31; for VCLMLS: -0.573 ± 1.1. Substance SCVSTYDFNSIR yielded an amyloid nucleation score of -0.484 ± 0.25. In turn, AGANLLSLCSFKHAECYFSN gave an amyloid nucleation score of 6.31 ± 0.071.

WFACSLVAYRVLSSGTKAVM returned an amyloid nucleation score of 0.204 ± 0.34.

As for WLASPGDSSFMCLNVVVAAV, the amyloid nucleation score came to 0.723 ± 0.5. The same measure for LLSNFGHVRNSSDKLLLFWS: 2.9 ± 0.18; for GLLNMCINCGRLFASPGISG: -0.285 ± 0.35.

For the substance IYNNLTCWSDASHGVCFGMD, the amyloid nucleation score came out at 4.67 ± 0.058. IQQFVKVFVGDLNLTVDRNM registered an amyloid nucleation score of 7.554 ± 0.06.

SCCLLPKYELRIIYCASRRK: the amyloid nucleation score was -0.324 ± 1.1. The same measure for NSVFRTDCGKRGMVVPGRAH: 1.04 ± 0.35. The substance KCLDSFDMSDMYSR yielded an amyloid nucleation score of -0.632 ± 1.1.

Take CLCGTFVSVSPIGYRGQWGG: the amyloid nucleation score is -0.467 ± 0.76.

Substance AVRLSEV had an amyloid nucleation score of 0.421 ± 0.38. YIKFIFCP: the amyloid nucleation score result was “inactive”. As to TSNSII, the amyloid nucleation score was -0.876 ± 0.49. The same measure for LFAIGEVTAYSGRLFSFYTQ: 1.79 ± 0.26; for WNKFNICFKGKAW: 0.123 ± 0.5. The same measure for LGSVGFAVWG: 0.17 ± 0.46; for YNCGTQRYLVFNNESNSFFS: 3.18 ± 0.071. Take NDGIFDSTRVVETMCLRSSP: the amyloid nucleation score is -0.129 ± 1.1.

On to HCYSPSKIRVNAIFLHIFL, for which the amyloid nucleation score result was “inactive”. For YRVVM, the amyloid nucleation score came to 1.22 ± 0.69. Substance ANMTVVGWFCIRR had an amyloid nucleation score of 6.146 ± 0.058. With RFTNSESRNYRA, the amyloid nucleation score is 4.24 ± 0.069.

VFNWLNRGEESWDVVLVV: the amyloid nucleation score result is “inactive”. Substance FPDSSEISHGAVHLLQVCPL returned an amyloid nucleation score of -0.313 ± 0.33.

As to MRDRMVAAARLFRGVSRLAF, the amyloid nucleation score was -0.268 ± 0.48. The same measure for FWDAWSDDRRERWRPCPPRT: 1.45 ± 0.38; for RFNFHTSD: -0.959 ± 1.1. The same measure for PYVHVYLWQSLKALVYLTCY: “inactive”; for LRIVICT: -1.63 ± 0.62; for LRFVEPTTCVWGRDLFGAHS: 0.545 ± 0.53. MRSYIQFVFCGDCRFFNWVI returned an amyloid nucleation score of 6.298 ± 0.05. LALSTCFYSWIVLAMFFHRK registered an amyloid nucleation score of 3.16 ± 0.11. In the case of LCVVY, the amyloid nucleation score was -0.237 ± 0.35. The substance LYLLM gave an amyloid nucleation score of -0.358 ± 1. YITLQLVASRRRS showed an amyloid nucleation score of 6.186 ± 0.045. The same measure for LILWRA: 0.456 ± 0.39; for AFRGSYLKFSESTCTIGSLW: 2.12 ± 0.13. The same measure for FNTSTAFESTDVKSKVM: -1.22 ± 1.1. The same measure for SFSCFVCCDQHKSRGSVWHY: 8.683 ± 0.076. SWSAIEPQVPKYYYSL had an amyloid nucleation score of -0.623 ± 0.79. The same measure for ERRRFRVDRKVLAFFYVSGT: 0.046 ± 0.37; for PDSRPIVRRSANCIWSNSWF: 1.38 ± 0.1. The same measure for LGVVWLS: -0.405 ± 0.3. In the case of LRTISCIITLVGWITASTKH, the amyloid nucleation score worked out at 0.124 ± 0.62. The same measure for YDLRVMWRNVSSDFLREKVC: -0.249 ± 1; for DIMYPYWMVR: -0.667 ± 0.76.

SCLSSFELVL registered an amyloid nucleation score of -0.694 ± 1.1. Substance RGKDEDMLKSECHYVL showed an amyloid nucleation score of -0.883 ± 0.76.

Consider GFVINFYLNGVALQRVILAF, for which the amyloid nucleation score entry was “inactive”. For the substance HLTSS, the amyloid nucleation score worked out at 0.772 ± 0.44. The same measure for LNCVFLSLSQTGGSCELDFV: 7.007 ± 0.043; for EVGKNRTSHIL: -0.134 ± 0.55.

Turning to YYISKKSMMMDEVRCWMTWF, the amyloid nucleation score was -0.524 ± 0.27.

GIDWFTTVMFPAIWVTDILL yielded an amyloid nucleation score of 4.593 ± 0.044. For the substance SRKGVTLLVLNNSLTHRSCN, the amyloid nucleation score amounted to 3.72 ± 0.049. On to MYLLVV, for which the amyloid nucleation score came to 0.786 ± 0.41. The same measure for LGVTLFFQGDSTTRWDLYPV: “inactive”; for AKDEERISNVVGLDCDLGVL: 0.057 ± 0.42; for SRSVNCAVFNADSLCPKLWL: 4.81 ± 0.11. As to SLFGQLSCQASCRSSKDGGN, the amyloid nucleation score is 6.375 ± 0.061. Regarding PALPTVNLNS, the amyloid nucleation score is -0.475 ± 0.42. The same measure for GSRAFALSTCCFMKYGSGMG: 8.075 ± 0.078; for GYRSIFLLFFPADHPLHTIY: -0.064 ± 1.1; for QWYPNFHFHAISLCKYTGQG: 0.017 ± 0.19. The same measure for RVVVTEKKLPCLGQGTIVPT: 0.03 ± 0.35; for STYNCFTGADRSLL: 0.94 ± 0.67. Turning to NTWEWLLPEMSNLLSWFSEW, the amyloid nucleation score was 0.014 ± 0.27. The same measure for CRRFSEYNVLCSDLNPIMVL: 0.404 ± 0.66; for GPSMCFGEFKVYAEVSWSQA: 0.095 ± 0.34. On to FTFLRRLMFTGFRLAIQNPS, for which the amyloid nucleation score result was “inactive”. The same measure for GCFPSLWWLLPGCFACYSLR: 0.721 ± 0.8. The same measure for TCGLSIVDYWSLR: -0.99 ± 1.1; for CSFNKTALIAFNSNGGEYEH: -2.66 ± 0.75. Substance VNLGSGAVEPTTLRKFGLTR yielded an amyloid nucleation score of 4.28 ± 0.06.

Take STTGYSVWFVA: the amyloid nucleation score was -1.19 ± 0.62. The substance QFIEMEKIDVVFQEYIGEEG registered an amyloid nucleation score of -0.265 ± 0.41.

Consider CLYARHFVNCNGYATGTLMD, for which the amyloid nucleation score is -0.163 ± 0.61. For the substance YIIGNVRNVRLWFRLSMNEV, the amyloid nucleation score entry was “inactive”. Consider VIVSMVSE, for which the amyloid nucleation score entry is “inactive”.

On to RFICYSHTFTGSMLSISIR, for which the amyloid nucleation score was found to be 8.061 ± 0.077.

Turning to FDKCLDKLMDKEKHALTFPQ, the amyloid nucleation score is -0.453 ± 1.1.

For the substance PTCSNHCFFYLNHTN, the amyloid nucleation score is 3.66 ± 0.12. NRSTKTMSYWPLVRNLLT: the amyloid nucleation score turned out to be 1.51 ± 0.3. On to NFFSTISQVMRYILFHSKVD, for which the amyloid nucleation score is -1.54 ± 0.54. GNSGYPTV: the amyloid nucleation score is 1.02 ± 0.24. Turning to AISCSVTWNVTMTSGLTPLC, the amyloid nucleation score stood at 1.17 ± 0.37. Substance SCWYKRWTPCSRDYDSFYIA registered an amyloid nucleation score of 2.72 ± 0.09. The same measure for VQICLGNPNWGNPANRSFVV: 1.95 ± 0.2. RQSKARLYCR had an amyloid nucleation score of 0.397 ± 0.3. In turn, TWGYGRDVCVRSERSGWYLS came in with an amyloid nucleation score of 0.859 ± 0.28. The same measure for YLSWHNFVYRLVYIYSGYFN: “inactive”. The same measure for FISDVPHERLRLTFIF: -1.41 ± 0.64; for MRFPGSGGRCLMTFLRLEWV: 0.329 ± 0.28. On to CANIMMKSKVYKFNERRSVK, for which the amyloid nucleation score was -0.873 ± 0.62. The same measure for EDFVLWLMW: -0.641 ± 0.63; for HYRWMSHADIMVFHNLCRYN: “inactive”. The same measure for PESYVGRSLSPTVLVMWKSD: 0.102 ± 1.1. The same measure for RMQHKHASVKGPTCVIQCTD: 1.62 ± 0.34; for VYSLFSYLRDTLVV: -0.534 ± 0.74. With VCWLLGSGFWAS, the amyloid nucleation score entry was “inactive”. In the case of LWLPQFEDCSREHTCEFLAI, the amyloid nucleation score came out at 0.237 ± 0.56.

Substance EGTCPSSGNILSWKSFCVVG came in with an amyloid nucleation score of -0.519 ± 0.25.

Regarding VWQVGQQRY, the amyloid nucleation score worked out at 0.899 ± 0.17. In turn, TWWIELVKLGEMVVK had an amyloid nucleation score of 0.313 ± 0.65. In turn, SGWDCSRVIQVLQVKNIYDS showed an amyloid nucleation score of 3.36 ± 0.06. The same measure for VNLVYSYFNISGWIEFSSLC: 2.98 ± 0.053.

These data come from the supplement of paper PMC12042874.
